Data reported in the Immune Epitope Database (IEDB).

What was measured:
Test in all cases: IEDB peptide-MHC binding, purified MHC/competitive/fluorescence; filed as Kd, often an IC50 or EC50 that approximates it; ≥ and ≤ were set here for values at or beyond the usual limits of such assays
Settings in all cases: source organism: Cryptosporidium parvum Iowa II
HLA-A*11:01 = molecular target: HLA-A*11:01
HLA-B*07:02 = molecular target: HLA-B*07:02
HLA-B*08:01 = molecular target: HLA-B*08:01
HLA-B*14:02 = molecular target: HLA-B*14:02
HLA-B*27:05 = molecular target: HLA-B*27:05
HLA-B*53:01 = molecular target: HLA-B*53:01
HLA-B*58:01 = molecular target: HLA-B*58:01

Measured: Kd

TVFRNQNRV
≥ 5 µM: all assays above
